Source: a protein production outcome set (Wang et al. 2014)

Assay: label from the status in PepcDB records

Sequence: MASKPEKRVASSVFITLAPPRRDVAVSEEVGQAACEARRARPWEMLPTKTPGAAVGRSPKTWTPSGKTNASLSGVTPQLSNGGCSLPPPSLNEEDLDLPPPPPPPSAYLPLPEEEPPVLPGKSLISDLEQLHLPPPPPPPPPQAPSKGSSVHPPPGHAIPSEEELPPPPEEPVTLPEREVSTDVCGFCHKPVSPRELAVEAMKRQYHAQCFTCRTCRRQLAGQRFYQKDGRPLCEPCYQDTLEKCGKCGEVVQEHVIRALGKAFHPPCFTCVTCARCISDESFALDSQNQVYCVADFYRKFAPVCSICENPIIPRDGKDAFKIECMGRNFHENCYRCEDCSVLLSVEPTDQGCYPLNDHLFCKPCHLKRSAAGCC
- protein production: failed

Sequence: MNKLILISGLMLFSFFFGAGNLIFPPMLGYTAQENMWVSMTGFAITGILLPYITVIVVAYMNGGVESIGNKVHPIFGTVFAICIYLSIGALYGIPRAANVAYEIGTNHVLPVHNHFTLIIFSLIFFLVVYLIALYPNRIIDNLGKYLTPILIIIIAVLCILVIINPEGSIGQASGEYAQTPIVSGILEGYFTMDLVAALAFSVVIVQMFKMSGVNDHKTLVKNVIKSGLISAILLLIIYFALAYVGATTSHEGFKDGTGILTFNSLRVFGSIGNLLFGVIVILACLTTCIGLVNACAAFAMKKLPKISYKMFVLIFSLLGFLVSTLGLELILQIAVPLLTFIYPTSIVLVLISLVSIFIPFEMKYAFILPTLMTLFISLLQIFNDFNLFQPLISLYKVLPLSDIQLSWLLPFIILLFIGLIIDYFLKNKTVSTS
- protein production: failed

Sequence: MSNSRELGDLLEQIRLGEDSQLEFKRVVFENDKIKGPNGDSLSQEIAAFANAIGGRLILGVDDKTRDVVGIPLDRLDAVSIWLENCVHDRIKPEPTIYLRRRLVPDRSGTEHAVLVIDIPRSLYVHLAPGGYFRRQGSSKHELPPNELLRLMQSRQRAGTLGFDEMPVLGCTQANFDAALYGRFLGTTDEPEELRLRKLKLLVPGEPGEEWASVAGVLMATATPSDWLPQAYVQCVHYAGTEKTAQEQLDAQDIQGPLDQQIRQAAAFVLRGMRTAARKNLGRIDVPQFDPEAVFEAIANAGAHRDYSISGAPVQVHLFTDRLEITSPGALPNSQSVESIALRTATRNELLTNLLARCPVEMEGVGRSRVMEKRGEGVPQILNRSERLSGHRPKFELLGENALRVTLYAADPETSPLLNEAGRGSVGLPHAGFARDDG
- protein production: failed

Sequence: MPKTLLIPGLDGSPAAHWQQWWALRDPDALLLDLSDVSRPVPAVWEIEVAGAILQHPGAILVGHSLGAILIARLLAKWPHLKVGGAILVAPAEPRHSDRTESFGPIFEESLGVPAYVVSSRNDPWMSFTQAERLARAWRADVVDLGFAGHINVDSGFGPWPGGVVLRDELARRPVP
- protein production: failed

Sequence: MTSQVANPPVQSIRLLFSALLLVMLLSALDQTIVSTALPTIVGELGGLDKLSWVVTAYILSSTIAVPLYGKFGDLFGRKIVLQVAIGLFLVGSALCGLAQNMTQLVLMRGLQGLGGGGLMVISMAAVADVIPPANRGRYQGLFGGVFGLATVIGPLIGGFLVQHASWRWIFYINLPLGLFALLVIGAVFHSSNKRSQHQIDWLGAIYLSMALLCIILFTSEGGSVHAWNDPQLWCILAFGIVGIIGFIYEERMAAEPIIPLALFRNRSFLLCSLIGFVIGMSLFGSVTFLPLYLQVVKEATPTEAGLQLIPLMGGLLLTSIISGRIISRTGKYRLFPILGTLLGVTGMVLLTRITIHSPLWQLYLFTGVLGAGLGLVMQVLVLAVQNAMPAQMYGVATSGVTLFRSIGGSIGVALFGAVFTHVLQSNLQQLLPEGAVLPPGMNPVAVQHLPADIRLDYLDAFGAAIHAAFLMAAGIMAVAFVLSWLLKEAPLKTATH
- protein production: failed

Sequence: MSNVLTEIDSQYPYMTKNEKKIAKFILNSPQKVIKMRSQDLASLLDISTSSVIRFSKKITDGGFHDLKINISKYVPKASSIYNVELMNNESTESLRTKLHTRTTRALNHANNELN
- protein production: not failed

Sequence: MTDLSARDRLAPDSSPRLLALASIALEAGALARQSLRRRHVDQMVSKGPRDYQTEIDVAVERLIVAGVSEAFPDHAIQGEEETGNRTGGPDAPVIYIDPIDGTTNFAWGLPHFGMTIAIAEQGKITCGVVYDSMLDELFSAEIGKGATLNGEKLRCADVADVQNVLVGAGLPVPGQVKSVDEELYHRALRRLMDNTAGVRRLGSAALSIAYVACGRLDGFFEDGLQVHDYGAAALILTEAGGVVTGFGGMPVDAGGGILAASPALHPWLLAGFQPGMDR
- protein production: failed

Sequence: MTGAVVVDIPLRWSDMDAQGHVNNVRISELVQESRNQAFYTNGAQEMLDTGIVVVSQDVEFLAPFVVDGSPLRVAVGCSQLGAARTVLDYRAWHHDVEVARARGTICPFDFATGRPRRLTDGERGAFESMKVESQQWKPIKVVDVSEAGDFIEVPIRWSDVDRQGHVNNVSLAGYLQEARILATTSWSPGMRRAGNYLWVVVRQDIRYRRQVLPTQRSCRVHTALTRLGTSSMTLAGSIATEEGSALDAATVLVCVDPKTGASVPIDDQTRQALSAYLVTV
- protein production: failed

Sequence: MTQAFSRVRFIMTQPSHPGNVGSAARAIKTTGFGELVLVAPRFPDMTAQPEAVTLASGALDVLERAAVHDTLEEALAPVTLAFALTARVRDLGPPPCDIREAAGLARRHLDDTEAGVVAIVLGTERAGLTNAQIELCHRICHIPANPQYSSLNVAQALQLAAWELRYALLAGTGQSLLPASSAQQANPGAAPADGAAVQALLAHWEQALVAVGFLDPAHPKKLMPRMKHLLTRSALSRDEVDMLRGVCTAMIAPNRPK
- protein production: failed

Sequence: QIGVPPSGPMDDLSFRLGNTALGNPEGAPGLEFTMAGPALRFTHATTVCVTGADVTVTVNGNTANTWEPITVPENGLLDVGSADGSGLRGYILFEGGLDVPRYLGSASTFTLGQFGGHGGRVLRTSDVLRTVSDHLPETVPGVVPEESRPALTSDWELKVVEGPHGAPEFFEREDIEELYAAEYEVHFNSARTGVRLIGPKPRWARNDGGEAGLHPSNIHDTAYSVGALDFTGDTPILLGPDGPSLGGFVCPVTVVTGERWKLGQLRPGDKVRFVPIRSVEAPSVKELGAAR
- protein production: failed

Sequence: MKAVTTSPSDPPDPFDPLDPVDPLASTKPEVDVVLPCLDEADALPWVLARIPPGWRALVVDNGSTDGSAEIARRLGATVVPETRRGFGAACHAGLTAATADIVCFCDCDGSLDPSLLVPFVREVRDGAADLVLGRRRPHGRGAWPAHARAGNLALARMLRRRTGLRLHDLGPLRAARREPLLALGLTDRRSGYPLQMVVRAADAGWRIAEHDVPYLPRTGVSKVTGTWRGTWQAVRDMSRVLAEPAQDGPPESGSLSSSQGGSSQLEHHHHHH
- protein production: failed

Sequence: MEEENNLNSKDTQNTFLKGSAWMTFGSIASRILGALYIIPWYAWMGQYGNIANALTARSYNIYTIFILISTAGIPGAIAKQVAKYNALNEYGIGRRLFHKGLILMAILGVVSAAIMYFASPLLASNGSQSDPRQIAVMRSLSYAILIIPILSIMRGYFQGYADMMPSAMSQFVEQFARVVWMLLTAFVIMQVQHGSYVHAVIQSNLAAAVGAAFGIGLLVWFLFSRRKQLDYLVANSNNRLRVSTTELFAEIIEQAIPFIIIDSGITLFSLVDQYTFHPMIAGLVHASSDAIEDWYALFGLNANKLIMIIVSLASAMAVTAIPLLSAAHTRGDYKSISRQIANTMDLFLFVMIPAAFGMAAISRPIYTVFYGPDQLGSNVLYLSAFTAISLGLFTVLMAILQGLSENGLAIKYLVLGLILKGILQYPMIFLFKIYGPLVATNLGLLVIVLLSLKHLEVQYNFNLNRTSRRLVGITAFSIGMFIIVKLVEMGLGKFLSPDRRISALILVIVAVSIGIIFYGFAALKTDLAQKIMGSKIESILVRLRIHD
- protein production: failed

Sequence: MADIPKSPTEPNKPVDTKLQVDPNTPVDPKPPVVEPKPPVVDPKPPVVDPKPPEPTHPTITVSPKTGDILVEWYAGNGKYYSSVFFNDFYTSQKELDENALNNLTNYYSKKEDWTLVSQLNTPSKSKSVAEHKLALDNVEQILTSGEYSNERALFYLRNQMNVLNESVTTQEELQRYLSENKKDYIKSVAEKVYQTATEEKREWSNTGDVASLEQALSKFYLVTSVFESVDPALV
- protein production: failed

Sequence: MQKGFLLGLFAYATFSMGDATIKSLGSQISVFEIGFFSILFSGIFIFFSKPREERWREFWRMSRPFAVHGRAISGLFAGIFGIYAFTTIPLAEAYALIFLSPLFVTVLSAVVLKENIGPWRWAAVLAGIVGVILVVRPGFKTLELGHIAAIGVAFLAAMTIVLLRSLAGKEKRTSIMGVLLIYGLTFNGIASIPDFVMPNLHQLLAFAFIGLCTATGQITLLVATRIAPASQIAPSHYSQILWAVAIGMTFFHEYPDAIAALGLAVIAASGLLTMIREKVRLGTVRWNPFFRNRL
- protein production: failed

Sequence: MGFTDSIREHVREHRTGMVHDLMFAVVWVAIVNFLFSAVFTDAPSWAFYMFMLAGIPAYFGFFFSLSMARAQQDSQ
- protein production: failed

Sequence: KRVFGFVSAKGGDGGSCIAANFAFALSQEPDIHVLAVDISLPFGDLDMYLSGNTHSQDLADISNASDRLDKSLLDTMVQHISPSLDLIPSPATFEKIVNIEPERVSDLIHIAASFYDYIIVDFGASIDHVGVWVLEHLDELCIVTTPSLQSLRRAGQLLKLCKEFEKPISRIEIILNRADTNSRITSDEIEKVIGRPISKRIPQDEDAMQESLLSGQSVLKVAPKSQLSKTIVDWALHLNGV
- protein production: not failed

Sequence: MNFNYQTAWPSLSRSFEWSPAMTSSSVNPAEKFDRSRADEYARQSRIALAGYDACHDLAACMLAASLGEGRAAHILAVGAGGTAQEIIAMASLEPGWRFTAVDPSAPMLETARQQLQAQGLLERTEVRLATVDELAADEPFDGATLIGVLHHLPGDEAKRQLLRAIARRLKPGAPLIVAGNHYAYAGQPLLLAAWGQRWRQQGATADEVHAKLGKILQGADPPHSEAAVQRLLEEGGFSAGTRFFSSLFWGAWLSRKRC
- protein production: failed

Sequence: MYGISVFLGEEITNDTIIYIKKMKALGFDGIFTSLHIPEDDTSLYRQRLTDLGAIAKAEKMKIMVDISGEALKRAGFSFDELEPLIELGVTGLRMDYGITIEQMAHASHKIDIGLNASTITLEEVAELKAHQADFSRLEAWHNYYPRPETGIGTTFFNEKNRWLKELGLQVFTFVPGDGQTRGPIFAGLPTLEKHRGQNPFAAAVGLMADPYVDAVYIGDPTISERTMAQFGYYHQTNQFLLEVAPSESRYLKRILGTHTNRLDAARDVLRSELSRTSEMFRKDEIATIESEQTEARPVGTVTIDNEKYGRYMGEIQVTLVDLPKDEKVNTITRIIEKDQTILPLIKAGNQFTLVTEGTIENEFRKLNN
- protein production: not failed

Sequence: GKPKTDTDFQTYNGDGFKLQIPSKWNPNKEVEYPGQVLRFEDNFDATSNVIVAITPTDKKSITDFGSPEQFLSQVDYLLGRQAYSGKTDSEGGFESDAVAIANVLETSTAEVGGKQYYYLSILTRTADGNEGGKHQLVTATVNDGKLYICKAQAGDKRWFKGAKKFVENTATSFSLA
- protein production: not failed

Sequence: MGKKNPNARHTDAATPLTTDDSNSSSVSRRESATESKSASESESSPPRSNTKQSRTHKNVKASGKATVSSSSDSDQAVANSSANDEEKEPVCKIRIVPLEKLLASPKTKERPSRGSQQKNVTINDSSDEEPLKGSKLVLPARKSRNKNAS
- protein production: failed

Sequence: SGLAQPQIAAVVAAPKKPEPAKAPKAPKSKSEKENKPVVAARKANAPVAKNASPVKGGKGPAGGDVGRPKNPTANGANNQGRFNNNQRYGNKESNGEFGNELPQRQFNNRDNRGPPRVRTGEKFG
- protein production: failed

Sequence: MNFVLSDVADAEAEKAIRDPLVAYNLARFGESDKRDLNITIRNDDNSVTGGLVGHTARGWLYVQLLFVPEAMRGQGIAPKLLAMAEEEARKRGCMGAYIDTMNPDALRTYERYGFTKIGSLGPLSSGQSITWLEKRF
- protein production: not failed

Sequence: GMNSGKVAFIVTKNGKRICDVIDECSQRGSTILKAQGGYKQDDIQVVMCACNSKEMYQVRKSVKDTDPDSFIVVVESHEVHGEGFKMTNIGEAEN
- protein production: failed
